Results reported in the supplement of paper PMC10567573.

B1: ATE1 (parent)
chain: YGSFHQQYWLDGKIIAVGVIDILP
B2: KCNA1 (parent)
chain: LKASMRELGLLIFFLFIGVILFSS

Variants of: B1
Test: protein stability index of a GFP-peptide fusion (GPS, HEK-293T) (PSI 1-6); higher = more stable
Settings: c terminus: a fixed tail appended
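Also: lentivirally expressed fusions sorted by FACS into six bins by GFP to DsRed ratio, PSI derived from sequencing read proportions per bin multiplied by bin number.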

Protein stability index: each site, then its substitutions
P24: F 1.69; K 1.04; Q 2.51; G 3.18; I 2.73; V 3.01; L 4.25; S 1.79; A 2.06; W 3.2; M 2.18
L23: S 2.66; T 2.53; Q 3.64

Variants of: B2
Test: as above
Settings: c terminus: a fixed tail appended

Protein stability index of substitutions, site by site:
F14: A 4.15; E 2.74; V 2.82; T 2.79; H 3.41; D 2.93; W 3.78; N 2.85; M 2.48; G 3.88; R 2.41; L 2.98; Y 3.01; P 4.04; S 3.66; C 1.95; I 2.74; K 2.65
I12: W 3.17; F 2.38; M 2.02; E 3.27; L 2.86; N 3.05; Q 2.17; A 1.87; V 1.35; D 2.94; T 4.06; G 3.16; C 2.52; Y 3.01; K 2.8; S 1.31; P 1.95; H 3.35; R 4.06
A3: T 2.12; P 2.17; Q 2.12; S 2.37; V 1.67; C 1.92; M 1.58; D 2.46; Y 2.06; R 1.74; N 1.86; K 2.16; G 1.65; F 1.72; L 1.77; W 2.14; E 1.78; I 1.53; H 2.89
L11: T 4.58; E 2.36; V 1.61; F 1.74; K 3.54; P 1.89; G 3.63; W 2.73; I 2.49; A 3.12; R 3.65; M 1.73; Y 3.48; D 3.53; H 2.95; C 4.25
L1: I 2.29; G 3; E 1.93; N 2.84; H 3.89; D 3.09; C 2.3; Y 2.76; R 1.4; A 2.05; P 1.82; K 1.58; V 1.88; Q 2.04; T 1.84; W 1.56; S 1.05; F 2.12; M 2.27
F13: I 1.77; R 2.03; K 2.76; L 2.16; H 3.07; G 2.98; A 1.57; S 3.56; P 3.61; M 1.32; Q 4.29; V 1.63; E 2.6; N 3.41; D 3.37; Y 4.13
M5: N 2.51; P 3.22; C 2.92; S 2.33; F 1.98; V 2.79; A 3.19; R 1.76; D 2.29; Y 2.42; G 1.28; Q 3.33; W 1.78; T 2.21; L 1.82; I 2.19; K 1.94
G9: L 1.83; D 3.82; K 3; V 1.71; S 1.98; T 1.72; E 4.03; R 2.48; F 2.07; W 1.54; H 1.8; Q 4.69; I 2.18; P 3.05; A 1.75; Y 2.34; M 2.37; C 1.29
L8: P 3.22; M 2.26; C 2.28; K 2.58; S 2.08; I 2.27; A 2.58; E 4; D 2.32; Y 2.58; V 2.42; R 2.8; W 2.85; F 2.39; G 1.65; H 2.1; Q 2.55; T 2.48
K2: S 2.19; V 3.35; P 2.02; T 2.01; G 2.49; A 3.41; E 3.11; I 2.79; Q 3.04; C 1.28; M 2.15; R 2.32; F 2; H 2.54; D 2.89; L 1.81; Y 2.35; W 2.4; N 2.18
V19: C 1.65; A 2.58
I17: K 2.83; C 2.56; Y 2.24; D 2.29; Q 2.82; G 2.88; S 2.3; F 2.79; L 1.95; A 2.83; E 1.91; R 2.71; W 3.85; P 2.77; T 2.48; H 2.85; M 3.35; V 2.74; N 4.03
G18: V 3.15; M 2.2; Q 2.75; S 3.74; D 1.87; N 3.02; T 3.2; C 3.63; W 2.21; F 3.9; K 2.44; P 1.86; I 4.5; A 1.77; L 1.82; Y 3.18
L15: P 2.29; N 3.33; A 2.44; G 2.53; T 3.59; K 2.54; S 2.67; I 1.55; W 2.7; M 1.7; R 2.01; H 2.11; F 1.79; C 2.37; Y 2.55
R6: D 3.02; H 3.36; Q 2.28; K 1.61; M 3.15; A 3.59; G 2.63; T 3.38; P 2.36; L 3.12; C 3.31; N 2.85; I 3.16; W 2.35; S 2.88; V 2.45; Y 3.07
F16: K 2.35; A 2.14; P 2.96; M 2.17; S 2.55; I 2.25; D 1.64; V 2.07; E 3.14; T 2.77; Y 3.35; R 1.32; G 3.06; H 3.79; L 2.91; W 2.38
L10: A 2.62; Q 2.94; I 2.42; D 3.28; M 3.58; V 1.23; G 4.36; P 2.75; R 2.83; H 3.23; S 2.77; T 3.06; Y 2.13; K 4; W 2.58; F 2.27; N 4.61; C 2.07
S4: R 2.09; M 1.97; C 2.87; G 1.91; H 2.07; Q 2.55; W 1.55; K 1.62; D 3.58; F 2.15; I 1.69; V 2.65; L 4.39; N 2.31; P 3.03; Y 2.17; A 3.21; E 3.02; T 2.46
E7: W 1.42; F 1.84; D 2.72; T 2.01; M 1.95; N 1.55; C 1.65; V 1.99; P 2.28; H 2.29; S 1.88; I 2.77; R 2.07; A 2.13; Q 1.68; G 2.13; K 2.21; L 2.16; Y 1.74
